Measurements published in patent publication US20230266303A1, “SYSTEM” (GTINVENT LIMITED, priority 2020, published 2023).
Entries after “also recorded” stand apart in the source; their conditions may differ.

Legend:
Type in all cases: biochemical
dGAE [1] = biological target: T1, dGAE (Homo sapiens, UniProt P10636); assay: Tau aggregation inhibition assay in vitro, circular dichroism; settings: 100 μM dGAE + 25 μM s1D12 (4:1)
T1 construct: dGAE, corresponding to amino acid residues 297-391 using numbering from 2N4R tau; made in house
T1 sequence (P10636 614-708): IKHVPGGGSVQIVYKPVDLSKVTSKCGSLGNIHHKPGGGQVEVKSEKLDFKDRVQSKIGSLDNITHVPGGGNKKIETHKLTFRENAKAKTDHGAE
Protocol: (§1) dGAE protein was diluted into 10 mM phosphate buffer, pH 7.4 (PB) with monoclonal antibody s1 D12 at a ratio of 4:1 protein:Ab (100 μM dGAE+25 μM s1D12 and 10 μM dGAE+2.5 μM s1D12) or 1:1 (25 μM dGAE+25 μM s1D12).
(§2) As a positive control, dGAE was prepared at a final concentration of 10, 25 or 100 μM in 10 mM PB. Negative controls consisted of dGAE with a non-tau IgG antibody at a ratio of 4:1 (10 μM dGAE+2.5 μM anti-ovalbumin), or antibody alone (25 or 2.5 μM s1D12 and 2.5 μM anti-ovalbumin). Samples were agitated at 700 rpm at 37° C. for 3 days.
(§3) For CD, 60 μL sample was placed in a 0.1 mm quartz cuvette and placed into a JASCO spectropolarimeter. 100 μL ThS in 20 mM MOPS buffer was added to 50 μL of each sample to a final concentration of 20 μM, mixed well, incubated at room temperature for 10 minutes then fluorescence intensity measured in a Cary Eclipse spectrophotometer using an excitation wavelength of 440 nm. Baseline readings from 10 mM PB were subtracted from CD and ThS measurements.

dGAE [2] = biological target: T1, dGAE; assay: Tau aggregation inhibition assay in vitro, Thioflavin S fluorescence; settings: 25 μM (1:1) and 100 μM (4:1) dGAE with s1D12
Protocol: as §1, §2, §3

dGAE [3] = biological target: T1, dGAE; assay: Tau aggregation inhibition assay in vitro, TEM
Protocol: as §1, §2
Transmission electron microscopy (TEM), circular dichroism (CD) and Thioflavin S (ThS) assays were performed as detailed in Al-Hilaly et. al. (2018) J. Mol. Biol. 430, 4119-4131. Briefly, TEM grids were prepared by adding 4 μL of sample to a carbon-coated grid followed by a wash with milli-Q filtered water then staining twice with 2% uranyl acetate. Grids were air dried and then imaged using a JEOL electron microscope operating at 80 kV.

- dGAE secondary structure in presence of antibody (CD, antibody spectrum subtracted) (dGAE [1]; listed as s1 D12): dGAE has not assembled into fibrils
- ThS emission peak at 483 nm of dGAE in presence of antibody (dGAE [2]): this signal was abolished
- ThS emission peak at 483 nm of dGAE in presence of antibody (dGAE [2]; listed as s1 D12): abolished
B1: s1D12: monoclonal antibody binding tau epitope within residues 337 to 349 or 341 to 353 of SEQ ID NO: 1 (antibody)
heavy: QVQLQESGPSLVKPSQTLSLTCTVSGFSLNNNAVGWVRQAPGKVPESLVGCSSDGTCYYNSALKSRLDITRDTSKNQISLSLSSVTTDDAAVYYCTRGHYSIYGYDYLGTIDYWGPGLLVTVSSAKTTAPSVYPLAPVCGDTTGSSVTLGCLVKGYFPEPVTLTWNSGSLSSGVHTFPAVLQSDLYTLSSSVTVTSSTWPSQSITCNVAHPASSTKVDKKIEPRGPTIKPCPPCKCPAPNLLGGPSVFIFPPKIKDVLMISLSPIVTCVVVDVSEDDPDVQISWFVNNVEVHTAQTQTHREDYNSTLRVVSALPIQHQDWMSGKEFKCKVNNKDLPAPIERTISKPKGSVRAPQVYVLPPPEEEMTKKQVTLTCMVTDFMPEDIYVEWTNNGKTELNYKNTEPVLDSDGSYFMYSKLRVEKKNWVERNSYSCSVVHEGLHNHHTTKSFSRTPGK
light: QAVLTQPSSVSGSLGQRVSITCSGSSSNVGGGNSVGWYQHLPGSGLKTIIYDTNSRPSGVPDRFSGSRSGNTATLTINSLQAEDEGDYYCVTGDSTTHDDLVGSGTRLTVLGGQPKSSPSVTLFPPSSEELETNKATLVCTITDFYPGVVTVDWKVDGTPVTQGMETTQPSKQSNNKYMASSYLTLTARAWERHSSYSCQVTHEGHTVEKSLSRADCS
- dGAE secondary structure in presence of antibody (CD, antibody spectrum subtracted) (dGAE [1]): dGAE cannot assemble into 3-sheet rich fibrils
- overall effect on assembly of dGAE into fibrils (dGAE [3]; collective finding of TEM, CD and ThS experiments): inhibits the assembly of dGAE into fibrils in vitro; also recorded: specifically inhibits the assembly of dGAE into fibrils
- fibril formation of dGAE in presence of antibody (TEM) (dGAE [3]; dGAE:antibody 4:1 or 1:1 (anti-ovalbumin 4:1, 10 μM dGAE), 700 rpm, 37° C., 3 days): no fibril formation is observed; also recorded: no fibrils were present
